How the values were obtained:
[1] = target: MBP-Kif2b-CT; assay: GST pull-down, anti-MBP blot quantified; settings: purified MBP-Kif2b deletions; n = 3; parent: 1.0; read off a plot
[2] = target: MBP-Kif2b-NT; assay: GST pull-down, anti-MBP blot quantified; settings: purified MBP-Kif2b deletions; parent: 1.0; read off a plot

Row | ratio to parent [1] | ratio to parent [2] | Substance
1 | 0.42 | 1.1 | GST-SKAP (from UniProt Q9Y448) S232A; S237A; T294A
2 | 0.87 | 15 | GST-SKAP (from UniProt Q9Y448) S232E; S237E; T294E
